The values below are quoted from earlier work in paper PMC11204982.

For this data set, the target named is CD20 (Homo sapiens) (UniProt P11836).
UniProt P11836, sequence (P11836 whole entry): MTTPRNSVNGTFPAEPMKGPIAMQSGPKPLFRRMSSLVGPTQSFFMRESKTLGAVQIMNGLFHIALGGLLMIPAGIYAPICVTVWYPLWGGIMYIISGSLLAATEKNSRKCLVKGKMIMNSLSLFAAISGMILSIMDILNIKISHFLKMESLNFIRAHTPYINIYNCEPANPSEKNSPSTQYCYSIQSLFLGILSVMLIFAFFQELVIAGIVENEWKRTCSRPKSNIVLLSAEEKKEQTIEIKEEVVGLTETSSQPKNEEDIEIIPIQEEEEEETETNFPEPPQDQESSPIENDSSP

As a reminder, the Kd is the free concentration of one partner at which half of the binding sites on the other are occupied at equilibrium, for simple one-to-one binding. Regarding rituximab, the Kd is 5.2 nM.
